The record followed here is patent US5336667A, “Method for inhibiting the ahesion of platelet with alboaggregins: platelet agonists which bind to platelet membrane glycoprotein IB” (Temple University of the Commonwealth System of Higher …, priority 1992, dated 1994).

Bounds are passed on as bounds.

As a reminder, the IC50 is the point on the concentration scale where inhibition reaches its midpoint. Read a high IC50 as weaker potency. The Kd is the concentration at which binding is half-saturated. Low values mean tighter binding, high ones weaker binding.

The subject of assay [1] is alboaggregin A (AL-A), Trimeresurus albolabris venom, SEQ ID NOS: 1, 2, 3 and 4. In words: Platelet agglutination induced by AL-A in the presence of inhibitors. The format is cell-based. How it is done: (§1) Agglutination of platelet-rich plasma, washed platelets and fixed platelets by AL-B was performed according to the method described by Kirby, J Lab Clin. Med. 100, 963-976 (1982). Platelet agglutination was assayed at 37° C. with constant stirring at 1200 RPM in an aggregometer and the extent of light transmission change was measured after two minutes. AL-B was added to suspensions of (A) fixed washed platelets or (B) washed platelets at final concentrations of (A) 0.2, 0.4, 0.6, 0.9 and 1.7 μg/ml and (B) 0.12, 0.24 and 0.48 μg/ml, respectively. The platelet concentration was approximately 3×10^8 platelets/ml in each suspension. AL-B agglutinated both fixed platelets and washed platelets in a dose-dependent manner. Once platelets were maximally agglutinated by AL-B, addition of bovine vWF gave no further response.
All three alboaggregins agglutinated platelet rich plasma and fixed platelets directly. To induce the same amount of platelet agglutination by bovine vWF, twice as much vWF was required to obtain the same change in light transmission. […] Platelet agglutination activity of each of the alboaggregins was similar in terms of their EC50 values.
(§2) Platelet agglutination induced by AL-A or AL-B was not inhibited by EDTA (10 raM) , soybean trypsin inhibitor (0.5 mg/ml) N-ethylmaleimide, (10 raM) or PGE1 (0.35 μM).

The target of assay [2] is T1, alboaggregin B (AL-B), Trimeresurus albolabris venom (Trimeresurus albolabris, UniProt P81115+P81116).
T1 sequence (P81115 24-156): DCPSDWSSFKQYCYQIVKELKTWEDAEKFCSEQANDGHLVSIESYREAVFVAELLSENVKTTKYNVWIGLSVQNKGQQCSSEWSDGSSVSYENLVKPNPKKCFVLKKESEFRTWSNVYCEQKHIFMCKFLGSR
T1 sequence (P81116 24-146): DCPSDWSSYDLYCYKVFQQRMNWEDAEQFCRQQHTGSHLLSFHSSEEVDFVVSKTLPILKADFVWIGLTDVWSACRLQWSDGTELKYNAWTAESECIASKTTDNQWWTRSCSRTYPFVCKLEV
The assay can be described thus: Platelet agglutination induced by AL-B in the presence of inhibitors. The assay is classed as cell-based. On the procedure:
as §1, §2

In assay [3] the target is T1, alboaggregin B (AL-B), Trimeresurus albolabris venom. In words: Effect of sugars on binding of AL-B to platelets (lectin test). As to conditions: sugar at concentrations up to 5 mg/ml. On the procedure:
Several galactose-specific lectins that agglutinate platelets have been reported in snake venoms. Their presence can be detected by inhibition of lectin-induced agglutination by galactose or other sugars. In order to determine whether the alboaggregins function as lectins, we examined the effects of eight different sugars (lactose, galactose, galactosamine, mannosamine, glucosamine, N-acetyl glucosamine, α-methyl glucoside and α-methyl mannoside) at concentrations up to 5 mg/ml.
Binding of ^125 I-bovine vWF and 125I-alboaggregins to labeled platelets was carried out according to Kirby, J. Lab. Clin. Med. 100, 963-976 (1982). Platelets were diluted and incubated at 37° C. for at least 10 min. prior to performing binding studies. Radiolabeled proteins were diluted in Tris-saline buffer containing 1 mg/ml of BSA and preincubated with buffer or a sample to be tested for inhibitory activity. The platelet suspension (1.9×10^8 platelets/ml) was added to the radiolabeled protein (26 ng/ml) and incubated at 37° C. for different periods of time. Unlabeled AL-B (1.8 μg/ml or 8.6 μg/ml) was added to duplicate suspensions after 5 min. of incubation with ^125 I-AL-B. Platelets were separated from free ligand by centrifugation for 4 min. at 12000 g. Supernatant and pellets were counted in an […] gamma counter to determine the amount of free and platelet-bound radioactivity, respectively.

Assay [4] addresses human platelet membrane glycoprotein Ib (human) (UniProt P07359). In words: unlabeled AL-C competing on platelets; competitor 125I-AL-C.
The target is the same in assay [5]. The assay can be described thus: unlabeled AL-C competing on platelets; competitor 125I-AL-A.
Assay [6] has the same target. The assay can be described thus: direct binding of 125I-AL-C to platelets.
Assay [7] has the same target. In words: unlabeled AL-C competing on platelets; competitor 125I-AL-B.
Assay [8] shares this target. In words: unlabeled AL-C competing on platelets; competitor 125I-bovine vWF.
The target is the same in assay [9]. In words: radioligand competition on fixed platelets; competitor 125I-bovine vWF. A general note: Loss of bound radioactivity is the signal in a displacement assay; it reports binding, not function.
Assay [10] shares this target. In words: Scatchard analysis of 125I-echicetin binding to fixed platelets.
Assay [11] has the same target.
Assay [12] shares this target. In words: radioligand competition on platelets; competitor 125I-echicetin.
For assay [13] the target is unchanged. In words: Scatchard analysis of 125I-echicetin binding to fixed platelets, three experiments.
Assay [14] concerns the target T2, human platelet membrane glycoprotein Ib (human, UniProt P07359). In words: unlabeled bovine vWF competing on platelets; competitor 125I-AL-B.
Assay [15] concerns the target T2, human platelet membrane glycoprotein Ib. In words: radioligand competition on platelets; competitor 125I-echicetin.
Assay [16] has the same target. The assay can be described thus: unlabeled bovine vWF competing on platelets; competitor 125I-AL-A.
Assay [17] has the same target. The assay can be described thus: unlabeled bovine vWF competing on platelets; competitor 125I-bovine vWF.
For assay [18] the target is unchanged. In words: unlabeled bovine vWF competing on platelets; competitor 125I-AL-C.
Assay [19] has the same target. The assay can be described thus: radioligand competition on fixed platelets; competitor 125I-bovine vWF (0.57 µg/ml).

With `O=C(O)CN(CCN(CC(=O)O)CC(=O)O)CC(=O)O` [EDTA], in assay [1] (EDTA 10 raM), the “inhibition of platelet agglutination induced by AL-A” value (“inhibition … by AL-A” below) is “not inhibited”. Further, the “inhibition of platelet agglutination induced by AL-B” value (“inhibition … by AL-B” below) in assay [2] (EDTA 10 raM) is on record as “not inhibited”.
`CC(=O)N[C@H]1C(O)O[C@H](CO)[C@@H](O)[C@@H]1O` (stereo partly drawn) [N-acetyl glucosamine]: the “effect on the binding of AL-B to platelets” value (“effect on the binding of AL-B” below) in [3] is “None of these sugars showed any effect”.
As for `CCN1C(=O)C=CC1=O` [N-ethylmaleimide], the “inhibition … by AL-A” value in assay [1] (N-ethylmaleimide 10 raM) is listed as “not inhibited”. Moreover, in assay [2] (N-ethylmaleimide 10 raM), the “inhibition … by AL-B” value is given as “not inhibited”.
As for `CCCCC[C@H](O)/C=C/[C@H]1[C@H](O)CC(=O)[C@@H]1CCCCCCC(=O)O` [PGE1], the “inhibition … by AL-A” value in assay [1] (PGE1 0.35 μM) was “not inhibited”. In assay [2] (PGE1 0.35 μM), the “inhibition … by AL-B” value is on record as “not inhibited”.
Take `N[C@H]1C(O)O[C@H](CO)[C@H](O)[C@@H]1O` (stereo partly drawn) [galactosamine]: the “effect on the binding of AL-B” value in assay [3] is recorded as “None of these sugars showed any effect”.
Same read-out and setting: under `N[C@H]1C(O)O[C@H](CO)[C@@H](O)[C@@H]1O` (stereo partly drawn) [glucosamine] stands “None of these sugars showed any effect”; under `OC[C@H]1O[C@@H](O[C@H]2[C@H](O)[C@@H](O)C(O)O[C@@H]2CO)[C@H](O)[C@@H](O)[C@H]1O` (stereo partly drawn) [lactose], “None of these sugars showed any effect”; under `N[C@@H]1C(O)O[C@H](CO)[C@@H](O)[C@@H]1O` (stereo partly drawn) [mannosamine], “None of these sugars showed any effect”.
On to `CO[C@H]1O[C@H](CO)[C@@H](O)[C@H](O)[C@H]1O` [α-methyl glucoside], for which the “effect on the binding of AL-B” value in assay [3] was “None of these sugars showed any effect”.
On to `CO[C@H]1O[C@H](CO)[C@@H](O)[C@H](O)[C@@H]1O` [α-methyl mannoside], for which, in assay [3], the “effect on the binding of AL-B” value is “None of these sugars showed any effect”.
Turning to alboaggregin C (ligand), the IC50 in assay [4] was 0.3 µg/mL; in assay [5] it was 1.7 µg/mL; in assay [7], 1 µg/mL; in assay [8] it was 0.2 µg/mL. Besides, the percent of total radioactivity added that bound in [6] worked out at 78%.
echicetin (ligand) came in with an IC50 in assay [9] of 0.2 µg/mL. Also, the binding sites per platelet (binding sites per platelet) in assay [10] was 45000. Moreover, in [11], the concentration for 50% inhibition of AL-B-induced agglutination of fixed platelets worked out at 1.05 µg/mL, the concentration for 50% inhibition of botrocetin/human vWF-induced agglutination of fixed platelets is 1.1 µg/mL, the concentration for 50% inhibition of bovine vWF-induced agglutination of fixed platelets turned out to be 0.4 µg/mL and the concentration for 50% inhibition of bovine vWF-induced agglutination of washed platelets was 0.15 µg/mL. Moreover, the IC50 in assay [12] was more than 0.5 µg/mL. Besides, the Kd in assay [13] was determined as 30 nM.
Consider galactose, for which the “effect on the binding of AL-B” value in [3] is “None of these sugars showed any effect”.

B1: bovine von Willebrand factor (ligand)
chain: SLSCRPPMVKVVCPADNPRAEGLECTKTCQNYDLECMSTGCVSGCLPAPGMVRHENRCVALERCPCFHQGREYAPGDRVKVDCNSCVCQDRKWNCTDHVCDASCSALGLAHYFTFDGLKYLFPGECQYVLVQDHCGSNPGTFRVLVGNEGCSVPSLKCRKRITILVEGGEIELFD
On to B1, for which the IC50 is more than 10 µg/mL in [14]; more than 20 µg/mL in assay [15]; more than 10 µg/mL in assay [16]; 2.1 µg/mL in assay [17]; more than 10 µg/mL in assay [18]; approximately 10 µg/mL in [19].
